Earlier results on two substances are cited in PMC5177622, “Multivalent Histone and DNA Engagement by a PHD/BRD/PWWP Triple Reader Cassette Recruits ZMYND8 to K14ac-Rich Chromatin” (Cell Reports, 2016).

The target in the data set is T1, human BAZ2B (UniProt: Q9UIF8 residues 2054-2168) WT (Homo sapiens, UniProt Q9UIF8).
T1 construct: residues 2054- 2168; made in house
T1 sequence (Q9UIF8 2054-2168): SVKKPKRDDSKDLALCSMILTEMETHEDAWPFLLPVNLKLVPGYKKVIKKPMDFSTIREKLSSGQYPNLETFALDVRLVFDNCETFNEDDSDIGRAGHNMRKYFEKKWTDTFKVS
Particulars: ITC. Here is the method: Titrations were carried out in 20 mM HEPES pH 7.5 (at 25 °C), 200 mM NaCl and 15 °C while stirring at 1000 rpm. Peptides were titrated into protein solutions. Data related to Fi gur e 5. [P] [Pep] KD ΔHobs TΔS ΔG B AZ 2 B Peptide (μM) (μM) (μM) ...
For orientation: In ITC the heat of successive injections is recorded.

[1] abbreviates: ref Filippakopoulos et al., 2012.

Read-outs that look alike come from different tables or passages of the source.

As usually defined, the Kd is the free concentration of one partner at which half of the binding sites on the other are occupied at equilibrium, for simple one-to-one binding. Turning to “H3(5-25)K14ac: histone H3 residues 5-25 peptide bearing K14ac; data from Philpott et al., 2011”, under “ref Philpott et al., 2011”, the dissociation constant (Kd) was 6.3 ± 0.2 µM, the N is listed as 1.00 ± 0.007, the TΔS is listed as -0.12 kcal/mol and the ΔG is reported as -6.74 kcal/mol. Where the note is “ref Philpott et al., 2011”, the ΔHobs is -6.86 ± 0.06 kcal/mol.
In the case of “H3(9-19)K14ac: histone H3 residues 9-19 peptide bearing K14ac; data from Filippakopoulos et al., 2012”, under setting [1], the Kd was 7.6 ± 0.3 µM, the N is 0.99 ± 0.007, the TΔS was -2.27 kcal/mol and the ΔG was -6.64 kcal/mol. Besides, the ΔHobs under setting [1] is on record as -8.91 ± 0.08 kcal/mol.
